The data set can be described thus: label from the status in PepcDB records.

For the sequence “MRKTPSHTEKKMVYSIRSLKNGTGSVLIGASLVLLAMATPTISSDESTPTTNEPNNRNTTTLAQPLTDTAAGSGKNESDISSPGNANASLEKTEEKPAASPADPAPQTGQDRSSEPTTSTSPVTTETKAEEPIEDNYFRIHVKKLPEENKDAQGLWTWDDVEKPSENWPNGALSFKDAKKDDYGYYLDVKLKGEQAKKISFLINNTAGKNLTGDKSVEKLVPKMNEAWLDQDYKVFSYEPQPAGTVRVNYYRTDGNYDKKSLWYWGDVKNPSSAQWPDGTDFTATGKYGRYIDIPLNEAAREFGFLLLDESKQGDDVKIRKENYKFTDLKNHSQIFLKDDDESIYTNPYYVHDIRMTGAQHVGTSSIESSFSTLVGAKKEDILKHSNITNHLGNKVTITDVAIDEAGKKVTYSGDFSDTKHPYTVSYNSDQFTTKTSWRLKDETYSYDGKLGADLKEEGKQVDLTLWSPSADKVSVVVYDKNDPDKVVGTVALEKGERGTWKQTLDSTNKLGITDFTGYYYQYQIERQGKTVLALDPYAKSLAAWNSDDSKIDDAHKVAKAAFVDPAKLGPQDLTYGKIHNFKTREDAVIYEAHVRDFTSDPAIAKDLTKPFGTFEAFIEKLDYLKDLGVTHIQLLPVLSYYFVNELKNHERLSDYASSNSNYNWGYDPQNYFSLTGMYSSDPKNPEKRIAEFKNLINEIHKRGMGAILDVVYNHTAKVDLFEDLEPNYYHFMDADGTPRTSFGGGRLGTTHHMTKRLLIDSIKYLVDTYKVDGFRFDMMGDHDAASIEEAYKAARALNPNLIMLGEGWRTYAGDENMPTKAADQDWMKHTDTVAVFSDDIRNNLKSGYPNEGQPAFITGGKRDVNTIFKNLIAQPTNFEADSPGDVIQYIAAHDNLTLFDIIAQSIKKDPSKAENYAEIHRRLRLGNLMVLTAQGTPFIHSGQEYGRTKQFRDPAYKTPVAEDKVPNKSHLLRDKDGNPFDYPYFIHDSYDSSDAVNKFDWTKATDGKAYPENVKSRDYMKGLIALRQSTDAFRLKSLQDIKDRVHLITVPGQNGVEKEDVVIGYQITAPNGDIYAVFVNADEKAREFNLGTAFAHLRNAEVLADENQAGPVGIANPKGLEWTEKGLKLNALTATVLRVSQNGTSHESTAEEKPDSTPSKPEHQNEASHPAHQDPAPEARPDSTKPDAKVADAENKPSQATADSQAEQPAQEAQASSVKEAVRNESVENSSKENIPATPDKQAELPNTGIKNENKLLFAGISLLALLGLGFLLKNKKEN”, the protein production entry was “failed”.

Consider “MRKVLVTVLLVLTVLSLFSAVKIAVILPMTGGISAFGRMVWEGIQIAHEEKPTVLGEEVELVLLDTRSEKTEAANAAARAIDKEKVLAIIGEVASAHSLAIAPIAEENKVPMVTPASTNPLVTQGRKFVSRVCFIDPFQGAAMAVFAYKNLGAKRVVVFTDVEQDYSVGLSNFFINKFTELGGQVKRVFFRSGDQDFSAQLSVAMSFNPDAIYITGYYPEIALISRQARQLGFTGYILAGDGADAPELIEIGGEAVEGLLFTTHYHPKAASNPVAKKFVEVYKEKYGKEPAALNALGYDAYMVLLDAIERAGSFDREKIAEEIRKTRNFNGASGIINIDENGDAIKSVVVNIVKNGSVDFEAVINPDDLK”, for which the protein production entry is “not failed”.

For the sequence “MRLGPAATSPSSGPRILPPAAHGDPRTAALPRATHLQIHDRRALSGLRDHPHLESVHLKGDFTLADLKALPTTLRHLDLSECTGSAKSFRAIAYLAGLPLESLNVAGAEIGDGGARLLAANPSLKSLNAASGGISASGARMLAESPTLESLDLTQNAIGDAGAQALAGSRSLRHLAVRNGLVTDLGTRALALNPALVSLDLGNLVTETGNQVEQDGYDKTANNITAQGAWALAQNRSLKSLSVQGNDLCGDDGVRALARNRTLTSLNVAFTNMTSASAKALADNPVLTSLSVRWNYGLDDAGAMELAMSRSLTSLDARDTGMSARGALALAANARISVWHDHANPVRAPLGEPPLSGLAGDPGQASRTAPGGAIWSSAAQARHVSAEAPANSAMTASTREGFALIDPFFNRVARESGLNVQAPQEMPWTRLRPSASEANHGNAGAHGASAEGLASSRMAASIREGLGLIDQYVDRMGREYGLPVRAPAAQPDSAAPEATQPTLPADVWQTIAAQADPRVRRTLSTVSKPLRAAALAATKHLTVWDKAAFSRLRNYPALESLSFHGPLSLADLRALPPSVRHLDLSGCTGSAVSEAGLAYLARLPLASLDLSDTGIGNRGAQALAASASLTSLNLSGNGIGTAGAEALGRNTVLTALDISANPIRNAGAQALAGSRSLTSLELRDTGIEDGGIEALAANTVLRSLDISGNDLSDQSAAALAANRTLTSLKANGCGLTNDMAQQLARIRSLRTLEVGSNSIGDAGVLTIARNASLRSLNLSRNPITPQGLYPLALSRTLKSLDVSRIGCGDRGALLLSGNRALTSLKLGFNRVSSEGARRLAANRTLVSLDLRGNTIDVAAARALANAEPLASLNVSDCRLDDAVACALAESRTLTSLDVSWNRLSHRAARALANNPVLASLYISHNDIGPEGAQALADSASLTFLDARANRIGEAGARLLEANTRMRGTPQNPHFLAQDVPE”, the protein production result is on record as “failed”. In the case of “MRLISKPVLCNYYVTYRCNATCGFCDIWEKPSPYVTPEAVEQNMRDLKKLGVKVIDFTGGEPLLHREMDTLLRIAKKYGMITTLTTNALLYPKWAERLKGLIDMLHFSLDSPDKAEHDTLRGVACFDFVLESIEKAKALG” it was “failed”; in that of “MRLKDLGERALLARLAPLGYPPEAPLPPGDDAGGVWAEGRAWLLKTDGFLYREVALKGMGPFEVGFRGVAATASDLLAKMGRPLGFTLGLFLPEDLEEGFVLELVRGAAEAAKRLGAFLLGGDTNRGVEVALTVSGYALAEAPLPRKALPGDLLYLAGDRWGRTGAAIRAHYEGRSLEGFPKIREAAFYPLPRLELLALSGLLRGSLDSSDGLAETLWQLADLGVGVEVEALPLYPDVLAFAGSEEAALELVLYGGEEFEAVLVVPQEGAAAVEARAKAKGLPLFRAGRVVAGEGVYLRGAPLPRKGYAHF”, “not failed”.

Consider “MRLRLLSLPFILSLCAPLLPLNTLAAERIVTIGGDVTEIAYALGAGDEIVARDSTSQQPQAAQKLPDVGYMRTLNAEGILAMKPTMLLVSELAQPSLVLTQIASSGVNVVTVPGQTTPESVAMKINAVATALHQTEKGQKLIEDYQQRLAAVNKTPLPVKVLFVMSHGGLTPMAAGQNTAADAMIRAAGGSNAMQGFSRYRPLSQEGVIASAPDLLLITTDGVKALGSSENIWKLPGMALTPAGKHKRLLVVDDMALLGFGLETPQVLAQLREKMEQMQ”, for which the protein production result is given as “failed”.

Consider “MRLSRGVFLLLLLLALASPLMIVGCGGPSFLPAASLRDPSVDMAWPPAPNPARIRFLREISGPEQVKAEPGAIARFLEFVTGEQFKHVPFVTPYGVVSDGGTLLFVSDSSSGVVHRIDLARQKVSYIVRAGDEFLSSPVGLALSPSGDLYVSDSVNAKVYVFSRDGEFLRVLADGQVDFKRPAGLAVNSKGVLFVVDVLAHKLKVFNVSGRFLGDFPPDDIGGKLNLPSHVAVDKDDKVYVTDALNFTVKVYDSARRYLRSIGEIGDAPGSFARPRGVAVDSDLNVYVIDAAFDNFQIFNQEGQLLLFVGKPGKKSGEFYMPSGIHIDRNDRIFISDSYNRRVQVFEYLKEENR”, for which the protein production entry is “failed”. Under “MRMLKTGLLNFISVLVKVITGLFLNKIMALYVGPAGYALVSQFQNGINFITTFASGAINTGVTKYTAEYANDKGKTSDLFKCITLLAITCCSFFSLTIIVFSEYFSLKLLGTINYSGVIKWFAATLFLFVANSILVSIINGLKEFKLYVLINIFGSLFSLLFSGILIYFFNLKGALIAFATNQSIVFFMTFYLIISKKMVSLKSFIGMPSDFYFIKKLIQYALMAIVSAFCVIYMQIIIRTYIANHFGWVQAGIWDGVWRISSLYLMLVTVPLGVYYLPRLAELHTKSLLLREIKQGYLFLLPIIIISAIIIYYLRYFIIELLFSKSFVSMGDIIGWQLLGDIFKIGSWLLSYIMLSKALTKTYIITEITTALLFLGGVHYLSPLYGLKGVTLAYCITYFCYWIMMIVVIISYFKGNFRNE” stands “failed”.

Consider “MRMPDRTDVCVLLPTLNESETIGDVVGGFYDHGFEHVLVVDGDSTDGTRAIAREHGARVITQSGSGKGQAVREGVEQIDQPYVLMADGDGTYRPEDADKMLTPLFAGRAEHVIGDRFADMEAGAMTRLNAVGNRLINRLFATIHGRDLQDILSGYRAFTTQSFERSKLSADGFGIETELAVECVRRGVSTAVVPIRYEARPGGSETNLHPLKDGGRILLTLYRLARMNNPIFYFGSVAAVGTAGGVALGAFVGYRYLTAGVSHEVLALLAAFLVLLSVQLLMFGVLSDIIVSIHREQTRRLDDIADQLEEQNDE”, for which the protein production entry is “failed”.

For the sequence “MRMRYQGRLSDWNDHKGFGFVTPHGGGDRAFVHISAFAQQTRRPRDGEIITYAIERDAHKRLNATQVRWADRTTAARTEQRRSGLPRKTLAAVSMLALAAATLMHVLPVIVPLWYAAASLVTLLIYAMDKSAAQRNQWRTPESSLHLLALIGGWPGALLAQEIHRHKCSKAAFQLTFWLTVALNVSALVLAVTETDLMATLPAVFD”, the protein production entry is “failed”. For “MRMTLRQLRIFNEVCDLRSYSRAAEEMSLTQPAVSLQVRQLEELIGQPLFEYVGKKLYMTEAAEALQLASRDIFGRLESLDMQLSDMQGSLQGQLKLAVESSCKYFIPHLFAAFKRQHPEVSLSLMVVNRAQIIRRLSDNRDDLVVMSAVPLDMGLEFLPFLNNPIVAVAPPDHPLSSRETLSLKDLEPWPLLTRETGSGTRRACEEYFKEKRVHFTQTLEVSSSEAQRECVVAGLGLAMLTRHAVCQELATGTLVELPVAELPLYRSWCVVQARDKRLSPVAHAFLAFIRTERAQISQLVERFDGRPQAV”, the protein production entry is given as “failed”. Under “MRNDTMLNDTPFQDDDSRWQAVVTRNKAADSCFIYAVKTTSIYCAPSCASRQPRRENVVFFATADEAQAAGFRPCKRCRQGMLSRQEQQAQQIARACRMIEQSDRPPTLAVLAQAVGMSAFHFHRVFKTTTGLTPKQYASAYRHRQLREHLADNGEVTAAIVAAGYDASGRFYAEAGTHLGMTPTAFQNRGKGMTIHFAIGRCSLGDVLVAESEKGICAILLGDDPEPLLNTLQEMFAHAHLVGGDAAFEQRMSQVVGFVDDPSIGLTLPLDIRGTAFQQRIWQALRAIPVGETLSYREVAERIGSPAAVRAVAGACAANRLAVAIPCHRVVRHDGALSGYRWGVERKRALLEKEQVEKKQIVHQPEESPP” stands “failed”; under “MRNFFKKMVVLSVGCLTLPLWAQPHREGVQQKLQSLSVEQKIDLLCARYPGVPQEGLAKYDWWSECLHGVARAGKATVFPKPIGMGSTWDAELIHRIGIAIGDEARAKHHQDVREHGYSDRHYGLTFFSPTLNIARDPRWGRTTECFSEDPLLTSDMGVSFIKGMQGDDPYYLKTVATAKHFVANNEENRRLGGSAIVDEVSLREYYFPAFRDAVVRGYVKSIMGAYNALNGIPCCANSMLLTDVLRKEWGFEGVVISDGSAIDKLYTHHKYVPNLEEGAALALRAGCDMSLRDEYRPGLKKAYHKGLITEHDLNVAVARVLDLRARLGLDKGTDQGNPYKNTPYSVVECERHQQLALEAAEKSMILLKNEGVLPLKPDASKRKLNIALIGDAFKSVYYGDYSGMPEYNRTLLEAFTHDAGRLANLTWMGERSQEVLIPSHLLTQTADQAYDGILGFTARYYEGTKVGKEAALTRQDLTLDFKLAEDAALKQKEVRAASWTSTLKAPQSGRYMFYLEASGRGKLFINGKQMLSKYNGHRFKTSCEVVLKEGEEYKLKVDCEELNTQMPIRLTWTPPFKGTDDTPAKLAKRSDVAILFVRDDNSSEGRDRKNLNLSDAHIELIKEVCAANPKTILLLGGGSTLALKDIIEGPAALLNVWIAGQGEAQAISNILLGKTNPSGKTAVTFCADESELPALDDYDITHGRSYQYFKGKELFPFGFGLSYTNYQYGKPKMKHRKLQQGDKVEVSAEIRNTGKYAGEEVVQCYLSSPTWQKQGLKQKLVGYQRVSLKPGQAKTVKFCIQEEQLKRWNKDKDEWGLNGNQYNLSVVPCSNQQNAVSFTYR”, “failed”.

The values are drawn from a protein production outcome set (Wang et al. 2014).
